Data taken from patent publication US20250076311A1 (Chugai, published 2025).
Positions count from the first letter of the chain named.

What was measured:
[1] = target: T1, cynomolgus monkey FcγRIIa2 extracellular domain, His-tagged (cynomolgus monkey); assay: SPR Biacore, antibody captured, FcgR analyte
T1 construct: also called cyno FcγRIIa2; cynoFcgRIIa2; not shown: C-terminal His-tag
T1 chain: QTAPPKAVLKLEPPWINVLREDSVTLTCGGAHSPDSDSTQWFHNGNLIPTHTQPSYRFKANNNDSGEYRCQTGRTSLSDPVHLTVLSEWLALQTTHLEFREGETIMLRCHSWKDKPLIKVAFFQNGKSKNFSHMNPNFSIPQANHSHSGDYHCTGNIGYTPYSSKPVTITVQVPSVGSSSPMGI

[2] = target: T2, cynomolgus monkey FcγRIIb extracellular domain with C-terminal His-tag (cynomolgus monkey); assay: SPR; KD of SG1 / KD of variant
T2 construct: also called cyno FcγRIIb; cynoFcγRIIb
T2 chain: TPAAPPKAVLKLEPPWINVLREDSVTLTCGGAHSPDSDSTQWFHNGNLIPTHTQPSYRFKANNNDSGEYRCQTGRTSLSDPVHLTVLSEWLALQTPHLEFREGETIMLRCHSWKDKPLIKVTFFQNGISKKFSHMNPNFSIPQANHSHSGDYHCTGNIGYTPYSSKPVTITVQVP
Method: (§1) The kinetic analysis of interactions between these antibodies and FcγR was carried out using BIACORE® T200 or BIACORE® 4000 (GE Healthcare). HBS-EP+ (GE Healthcare) was used as the running buffer, and the measurement temperature was set to 25° C. […] After the measurement, the antibody captured on the chip was washed off by allowing reaction with 10 mM glycine-HCl, pH1.5 and 25 mM NaOH so that the chip was regenerated and used repeatedly. The sensorgrams obtained as measurement results were analyzed by the 1:1 Langmuir binding model using the BIACORE® Evaluation Software to calculate the binding rate constant ka (L/mol/s) and dissociation rate constant kd (1/s), and the dissociation constant KD (mol/L) was calculated from these values. […] Regarding such interactions, KD values were calculated using the following 1:1 binding model described in BIACORE® T100 Software Handbook BR1006-48 Edition AE.

[3] = target: T3, cynomolgus monkey FcγRIIIaS extracellular domain with C-terminal His-tag (cynomolgus monkey, UniProt Q8SPW2 21-206 at identity 1.00)); assay: SPR; KD of SG1 / KD of variant
T3 construct: also called cyno FcγRIIIaS; FcgRIIIaS
T3 chain: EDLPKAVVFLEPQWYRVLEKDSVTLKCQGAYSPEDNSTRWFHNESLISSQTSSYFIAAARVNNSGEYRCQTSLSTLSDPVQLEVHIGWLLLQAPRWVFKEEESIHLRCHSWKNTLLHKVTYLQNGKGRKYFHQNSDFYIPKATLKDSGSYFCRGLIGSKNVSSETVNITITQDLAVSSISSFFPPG
Method: as §1

[4] = target: T4, human FcγRIIaR extracellular domain with C-terminal His-tag (human, UniProt P12318 34-217); assay: SPR; KD of SG1 / KD of variant
T4 construct: also called human FcγRIIa (type R); FcgRIIaR
T4 chain: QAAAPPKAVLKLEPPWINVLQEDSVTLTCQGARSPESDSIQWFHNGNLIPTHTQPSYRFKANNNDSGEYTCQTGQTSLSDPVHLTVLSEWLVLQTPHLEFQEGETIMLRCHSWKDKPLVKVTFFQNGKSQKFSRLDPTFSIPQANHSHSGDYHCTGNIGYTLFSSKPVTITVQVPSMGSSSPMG
Method: as §1

[5] = target: T5, cynomolgus monkey FcγRIIa3 extracellular domain with C-terminal His-tag (cynomolgus monkey); assay: SPR; KD of SG1 / KD of variant
T5 construct: also called cyno FcγRIIa3; FcgRIIa3
T5 chain: T1 chain with K127I, N130K, H133P, Q142R
Method: as §1

[6] = target: T6, human FcγRIIaR extracellular domain with C-terminal His-tag (human, UniProt P12318 34-217); assay: SPR Biacore, antibody captured, FcgR analyte
T6 construct: also called human FcgRIIaR; FcγRIIa (type R); not shown: His-tag added to C-terminus
T6 chain: T4 chain

[7] = target: T7, human FcγRIIaH extracellular domain with C-terminal His-tag (human, UniProt P12318 34-217); assay: SPR Biacore, antibody captured, FcgR analyte
T7 construct: also called human FcgRIIaH; FcγRIIa (type H); not shown: His-tag added to C-terminus
T7 sequence: T4 chain with R134H

[8] = target: T8, human FcγRIIb extracellular domain with C-terminal His-tag (human, UniProt P31994 43-217); assay: SPR Biacore, antibody captured, FcgR analyte
T8 construct: also called human FcgRIIb; not shown: His-tag added to C-terminus
T8 sequence: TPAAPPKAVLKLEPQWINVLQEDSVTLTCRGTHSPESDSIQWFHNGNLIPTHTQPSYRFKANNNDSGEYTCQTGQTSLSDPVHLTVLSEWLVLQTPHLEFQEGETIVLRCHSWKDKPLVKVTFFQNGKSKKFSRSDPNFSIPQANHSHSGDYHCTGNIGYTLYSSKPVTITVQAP

[9] = target: T9, cynomolgus monkey FcγRIIIaS extracellular domain with C-terminal His-tag (cynomolgus monkey, UniProt A3RFZ7 21-206 (rhesus entry)); assay: SPR Biacore, antibody captured, FcgR analyte
T9 construct: also called cyno FcgRIIIaS; cynoFcγRIIIaS; not shown: His-tag added to C-terminus

[10] = target: T10, cynomolgus monkey FcγRIIa2 extracellular domain with C-terminal His-tag (cynomolgus monkey); assay: SPR Biacore, antibody captured, FcgR analyte
T10 construct: also called cyno FcgRIIa2; cynoFcγRIIa2; not shown: His-tag added to C-terminus
T10 chain: T1 chain

[11] = target: T11, human FcγRIIIaV extracellular domain with C-terminal His-tag (human, UniProt P08637 17-208); assay: SPR Biacore, antibody captured, FcgR analyte
T11 construct: also called human FcgRIIIaV; not shown: His-tag added to C-terminus

[12] = target: T12, human FcγRIIb extracellular domain, His-tagged (human, UniProt P31994 43-217); assay: SPR Biacore, KD(SG1)/KD(variant)
T12 construct: also called FcgRIIb (human); not shown: C-terminal His-tag
T12 sequence: T8 sequence
Method: as §1

[13] = target: T13, human FcγRIIaR extracellular domain with C-terminal His-tag (human, UniProt P12318 34-217); assay: SPR (Biacore), KD of SG1 divided by KD of variant
T13 construct: also called human FcgRIIaR; FcγRIIa (type R)
T13 chain: T4 chain
Method: as §1

[14] = target: T14, cynomolgus monkey FcγRIIa3 extracellular domain with C-terminal His-tag (cynomolgus monkey); assay: SPR Biacore, antibody captured, FcgR analyte
T14 construct: also called cyno FcgRIIa3; cynoFcγRIIa3; not shown: His-tag added to C-terminus
T14 chain: T1 chain with K127I, N130K, H133P, Q142R

T11 sequence (P08637 17-208 F176V): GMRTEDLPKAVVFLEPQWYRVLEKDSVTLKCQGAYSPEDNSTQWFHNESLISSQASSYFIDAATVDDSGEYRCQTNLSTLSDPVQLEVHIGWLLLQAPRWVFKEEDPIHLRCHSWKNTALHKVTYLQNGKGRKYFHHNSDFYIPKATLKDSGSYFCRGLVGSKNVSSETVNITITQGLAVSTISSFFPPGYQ

B1: M103205H795-MY006/M103202L889-SK1 (antibody, human IgG1, kappa, name in EU numbering)
heavy: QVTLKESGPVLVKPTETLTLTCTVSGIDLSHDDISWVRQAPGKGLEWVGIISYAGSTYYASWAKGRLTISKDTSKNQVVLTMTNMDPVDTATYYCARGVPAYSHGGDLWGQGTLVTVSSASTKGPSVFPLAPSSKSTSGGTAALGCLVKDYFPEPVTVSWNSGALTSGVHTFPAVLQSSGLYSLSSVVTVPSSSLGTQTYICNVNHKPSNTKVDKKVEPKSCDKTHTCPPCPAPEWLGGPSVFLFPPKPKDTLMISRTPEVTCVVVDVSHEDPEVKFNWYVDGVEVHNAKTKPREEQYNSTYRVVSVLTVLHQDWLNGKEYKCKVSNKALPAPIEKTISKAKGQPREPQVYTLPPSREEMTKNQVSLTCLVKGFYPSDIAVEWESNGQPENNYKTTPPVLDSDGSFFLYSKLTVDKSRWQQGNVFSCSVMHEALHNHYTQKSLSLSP
light: DIVMTQSPATLSLSPGERATLSCTSSQSVYHANWLSWFQQKPGQPPKLLIYWASTLAYGVPSRFSGSGSGTDFTLTISSLQPEDAATYYCAGGYGGGRYAFGQGTKVEIKRTVAAPSVFIFPPSDEQLKSGTASVVCLLNNFYPREAKVQWKVDNALQSGNSQESVTEQDSKDSTYSLSSTLTLSKADYEKHKVYACEVTHQGLSSPVTKSFNRGEC
notes: Substitution introduced into M103205H795-SG1; EU numbering
- Kd [1]: 1.9 µM

B2: M103205H795-MY309 (heavy chain) with M103202L889-SK1 (light chain) (antibody, human IgG1, kappa, name in EU numbering)
heavy: QVTLKESGPVLVKPTETLTLTCTVSGIDLSHDDISWVRQAPGKGLEWVGIISYAGSTYYASWAKGRLTISKDTSKNQVVLTMTNMDPVDTATYYCARGVPAYSHGGDLWGQGTLVTVSSASTKGPSVFPLAPSSKSTSGGTAALGCLVKDYFPEPVTVSWNSGALTSGVHTFPAVLQSSGLYSLSSVVTVPSSSLGTQTYICNVNHKPSNTKVDKKVEPKSCDKTHTCPPCPAPELLTGPSVFLFPPKPKDTLMISRTPEVTCVVVDVSEEDPEVKFNWYVDGVEVHNAKTKPREEQYNSTYRVVSVLTVLHQDWLNGKEYKCKVSNKALPKPIEKTISKAKGQPREPQVYTLPPSREEMTKNQVSLTCLVKGFYPSDIAVEWESNGQPENNYKTTPMVLDSDGSFFLYSKLTVDKSRWQQGNVFSCSVMHEALHNHYTQKSLSLSP
light: B1 light
notes: Substitutions introduced into M103205H795-SG1; positions in EU numbering
- KD fold (SG1 = 1) [2]: 2.5 fold
- KD fold (SG1 = 1) [3]: 0.3 fold
- KD fold (SG1 = 1) [4]: 4.2 fold

B3: M103205H795-MY276 (heavy chain) with M103202L889-SK1 (light chain) (antibody, human IgG1, kappa, name in EU numbering)
heavy: B2 heavy with T238I, E270D, M398K
light: B1 light
notes: as for B2
- KD fold (SG1 = 1) [2]: 5.6 fold
- KD fold (SG1 = 1) [3]: 0.3 fold

B4: M103205H795-MY316 (heavy chain) with M103202L889-SK1 (light chain) (antibody, human IgG1, kappa, name in EU numbering)
heavy: B2 heavy with T238L, Q297L, M398K
light: B1 light
notes: as for B2
- KD fold (SG1 = 1) [2]: 0.9 fold
- KD fold (SG1 = 1) [3]: 0.15 fold
- KD fold (SG1 = 1) [5]: 0.8 fold
- KD fold (SG1 = 1) [4]: 1 fold

B5: M103205H795-MY177/M103202L889-SK1 (antibody, human IgG1, kappa, name in EU numbering)
heavy: B2 heavy with T238N, K332A, M398N
light: B1 light
notes: EU numbering
- KD fold (SG1 = 1) [6]: 0.1 fold
- Kd [6]: 2 µM
- Kd [7]: 1 µM
- Kd [8]: 1.1 µM
- KD fold (SG1 = 1) [9]: 0.12 fold
- Kd [9]: 2.9 µM

B6: M103205H795-MY210/M103202L889-SK1 (antibody, human IgG1, kappa, name in EU numbering)
heavy: B2 heavy with T238N, E270D, K328T, M398P
light: B1 light
notes: substitutions in EU numbering, introduced into M103205H795-SG1
- KD fold (SG1 = 1) [10]: 6.1 fold
- KD fold (SG1 = 1) [7]: 0.8 fold
- KD fold (SG1 = 1) [11]: 0.03 fold
- KD fold (SG1 = 1) [9]: 0.15 fold

B7: M103205H795-MY041/M103202L889-SK1 (antibody, human IgG1, kappa, name in EU numbering)
heavy: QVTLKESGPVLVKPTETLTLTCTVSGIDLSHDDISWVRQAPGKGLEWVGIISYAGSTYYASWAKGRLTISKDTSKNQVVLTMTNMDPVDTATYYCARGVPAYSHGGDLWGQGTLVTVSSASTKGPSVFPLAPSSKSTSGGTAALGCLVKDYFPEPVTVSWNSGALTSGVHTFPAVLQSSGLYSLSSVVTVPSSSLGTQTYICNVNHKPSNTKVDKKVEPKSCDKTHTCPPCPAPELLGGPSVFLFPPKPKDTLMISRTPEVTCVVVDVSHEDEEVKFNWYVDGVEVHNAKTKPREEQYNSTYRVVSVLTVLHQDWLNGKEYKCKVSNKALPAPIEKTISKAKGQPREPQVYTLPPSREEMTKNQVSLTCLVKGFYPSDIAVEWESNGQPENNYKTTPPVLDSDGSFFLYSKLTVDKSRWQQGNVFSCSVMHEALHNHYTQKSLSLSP
light: B1 light
notes: as for B1
- KD fold (SG1 = 1) [12]: 1.5 fold

B8: M103205H795-MY525 / M103202L889-SK1 (antibody, human IgG1, kappa, name in EU numbering)
heavy: B2 heavy with A233T, S241V, E270D, M398P
light: B1 light
- KD fold (SG1 = 1) [13]: 6.9 fold

B9: M103205H795-MY289/M103202L889-SK1 (antibody, human IgG1, kappa, name in EU numbering)
heavy: B2 heavy with T238N, E270H
light: B1 light
notes: as for B6
- KD fold (SG1 = 1) [6]: 0.3 fold
- KD fold (SG1 = 1) [7]: 0.8 fold
- KD fold (SG1 = 1) [14]: 1 fold
- KD fold (SG1 = 1) [8]: 1.8 fold
- KD fold (SG1 = 1) [9]: 0.07 fold
